Experimental data as given in US20240117030A1 (Pfizer, published 2024).
Where two headings read alike, the source gives them in different places.

Legend:
human IL-4 [1] = target: T1, human IL-4 (human, UniProt P05112 25-153); experiment: cell-based or functional assay
T1 sequence (looked up): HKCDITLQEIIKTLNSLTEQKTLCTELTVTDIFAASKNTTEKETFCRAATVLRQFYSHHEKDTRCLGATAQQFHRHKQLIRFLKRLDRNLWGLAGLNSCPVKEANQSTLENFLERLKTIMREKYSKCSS

human IL-4 [2] = target: T1, human IL-4; experiment: cell-based or functional assay; remark: listed apart in the source
human IL-33 = target: T2, human IL-33 (human, UniProt O95760 112-270, limits assumed); experiment: KinExA solution affinity, fixed antigen format
T2 construct: Limits stated for the R&D protein; also called human IL-33 WT; reduced human IL-33
T2 sequence (looked up): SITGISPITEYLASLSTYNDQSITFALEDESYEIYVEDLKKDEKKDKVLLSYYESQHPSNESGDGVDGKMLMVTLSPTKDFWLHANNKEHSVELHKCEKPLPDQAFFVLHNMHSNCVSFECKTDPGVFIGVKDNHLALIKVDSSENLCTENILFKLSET
Experimental: Samples were prepared in PBS containing 0.1% sodium azide and 1.0 mg/mL bovine serum albumin (BSA). […] The fixed active binding concentrations (ABC) of biotinylated human IL 33 used were 10 pM and 100 pM. Biotinylated human IL-33 wild-type (WT) was reduced with 3 mM Dithiothreitol (DTT) for 2 hours at room temperature before use. The samples were allowed to equilibrate for at least 72 hours at room temperature before passing them through a flow cell that contained the test article anti-IL-33 antibody being evaluated adsorbed to polymethylmethacrylate (PMMA) beads (Sapidyne). […] Data analysis was performed with KinExA Pro software version 4.3.11 (Sapidyne). […] The ‘drift correction’ fitting option was used when responses varied between replicate injections. Two curves were obtained in independent experiments and analyzed using the ‘n-curve analysis’ tool to obtain global best fit values for the KD and active concentration of IL-33 cytokine. The software reports each best fit value along with a 95% confidence interval.

Binder	pSTAT6 IC50 [pM] (human IL-4 [1])	pSTAT6: Fold bioactivity relative to IL4-1284 (human IL-4 [2])	pSTAT6: Fold bioactivity relative to IL4-1285 (human IL-4 [2])	pSTAT6 IC50 [pM] (human IL-4 [2])	fold higher affinity relative to the IL33-0352 benchmark antibody (human IL-33)	fold higher affinity than IL33-0232 antibody (human IL-33)
IL4-1284 (antibody, human IgG1, kappa, V domains shown) VH: QVTLRESGPALVKPTQTLTLTCTFSGFSLSTSGMGVSWIRQPPGKGLEWLAHIYWDDDKRYNPSLKSRLTISKDTSRNQVVLTMTNMDPVDTATYYCARRETVFYWYFDVWGRGTPVTVSS VL: DIVMTQSPDSLAVSLGERATINCKASQSVDYDGDSYMNWYQQKPGQPPKLLIYAASNLESGVPDRFSGSGSGTDFTLTISSLQAEDVAVYYCQQSNEDPPRFGGGTKVEIKR	125 pM	1 fold	0.6 fold	125 pM	–	–
IL33-0726 (antibody, human IgG1, kappa, V domains shown, also called IL13433-0726; IL33-0726 IgG) VH: EVQLVESGGGLVQPGGSLRLSCAASGFTFSSYWMYWVRQAPGKGLEWVAAITPNAGEDYYPESVKGRFTISRDNAKNSLYLQMNSLRAEDTAVYYCARGQYYYTKYSLGYWGQGTLVTVSS VL: DIQMTQSPSSLSASVGDRVTITCRASQPIHNHLDWYQQKPGKAPKLLIYFGKNLQEGVPSRFSGSGSGTDFTLTISSLQPEDFATYYCFQYKKGWSFGGGTKVEIKR	–	–	–	–	~3 fold	~14 fold
